# Data from article PMC2885523.
# Biological target: MP81, in vitro-synthesized, [35S]-labeled (T. brucei)
# Assay: co-IP
substance,measurement,value
"TbTUT4-MD (TbTUT4 TUTase with grafted RET2 middle domain), in vitro-synthesized, [35S]-labeled (from UniProt Q381M1;Q86MV5)",fold increase of immunoprecipitation on addition of MP81,2 fold
